Assay results from the supplement of paper PMC9170038.

Test system: MS2 coat protein
Test: apparent KD of MS2 coat protein; designed switch direction (-1 OFF switch, 1 ON switch): -1; higher = weaker reporter binding
Method in brief: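 SNAP-549-labelled MS2 coat protein was titrated, doubling from 0.7 or 1.5 nM to 3 µM, over designed RNA switches transcribed on Illumina chips by stalled E. coli RNA polymerase. Runs were done without input, with 200 uM small-molecule ligand, or with an oligonucleotide input. Apparent KD is the per-design median over clusters of curve-fitted normalised fluorescence.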

[1] = input ligand: microRNA oligo, concentration not stated

Sequence	apparent KD of MS2 coat protein (input ligand: FMN 200 uM)	apparent KD of MS2 coat protein (input ligand: none)	apparent KD of MS2 coat protein [1]	apparent KD of MS2 coat protein (Eterna round: R95, input ligand: FMN 200 uM)	apparent KD of MS2 coat protein (Eterna round: R95, input ligand: microRNA oligo, concentration not stated)	apparent KD of MS2 coat protein (Eterna round: R95, input ligand: none)
AGCUAGUCAGGAUAUUCUAAUGAUUACAUGAGGAUCACCCAUGUGAAUGGACAAGGGUGUGAAGAAGGGACUAGCG [Omei Ex5 A10] (Eterna round: R97, puzzle: Exclusion 5)	0.426 µM	4.03 µM	–	–	–	–
AGCUAGUCAGUAGGAUAUGUAGGAUAUGUGGUUGAGGUUCACCCAACCACAUCAACGACAGAAGGACAGAAGGACUGGUUAGCA [pwkr exNG2 2xFMN 1xF5.5] (Eterna round: R96, puzzle: Exclusion NG 2)	2.32 µM	2.81 µM	1.21 µM	–	–	–
AGCUAGUGCCGAGGAUAUACAUGAGGAUCACCCAUGUAAGCCAGUCGGUUUCUGACUGGCAAUAUGUAGAAGGCGGCGUUGGCA [JL ENG2 1.49] (Eterna round: R96, puzzle: Exclusion NG 2)	0.0482 µM	0.0166 µM	0.0113 µM	–	–	–
AGCUAGUGCCGAGGAUAUGAUACAUGAGGAUCACCCAUGUGUAGGGUGUAUAUAUAUCAAUAAUAUUAGAAGGCGGCGUUGGCA [JL ENG2 1.47] (Eterna round: R96, puzzle: Exclusion NG 2)	0.785 µM	1.48 µM	0.48 µM	–	–	–
AGCUGGUCAGGAUAUUUGGAGGGACUCCAAUGGUCCACGACGGAGAAGGGACAUGAGGAUCACCCAUGUGGUCG [Eternabot (L2) Solution 13] (Eterna round: R97, puzzle: Exclusion 4)	0.0693 µM	0.115 µM	–	–	–	–
AGCUGUGGCCGAGGAUAUACAUGAGGAUCACCCAUGUUACAUAAUUCGACAUGAGAAUACGAACCGUAGAAGGCGGUCUCAGCA [Eli eng2 - 002] (Eterna round: R96, puzzle: Exclusion NG 2)	0.127 µM	0.0661 µM	0.0378 µM	–	–	–
AGCUGUGGCCGAGGAUAUAUACAUGAGGAUCACCCAUGUAGGUGCGGAUACUCGCACCAAUAAGUGUAGAAGGCGGUCUCAGCA [Eli eng2 - 058] (Eterna round: R96, puzzle: Exclusion NG 2)	0.0107 µM	0.0133 µM	0.0131 µM	–	–	–
AGCUGUGGCCGAGGAUAUCCACAUGAGGAUCACCCAUGUUGAUACGCCGUUAAAGGCGAUAUAAGGGAGAAGGCGGUCUCAGCA [Eli eng2 - 051] (Eterna round: R96, puzzle: Exclusion NG 2)	0.0125 µM	0.00926 µM	0.00718 µM	–	–	–
AGCUGUGGCCGAGGAUAUCUAAUAAUCCCAACCGAAAUAUAAUCGGACAUGAGGAUCACCCAUGUAGAGAAGGCGGUCUCAGCA [Eli eng2 - 066] (Eterna round: R96, puzzle: Exclusion NG 2)	–	–	0.0966 µM	–	–	–
AGCUUUUUGUUCGUCUUACACAUGAGGAUCACCCAUGUGUUGGACCGCAUCGAUAGAUGUAGACCGAGAAGCAUGGG [Omdei Mir OFFv1 C8] (Eterna round: R97, puzzle: Sensor, turn-off variant 1)	0.0245 µM	0.0238 µM	–	–	–	–
AGGAAACAUGAGGAUCACCCAUGUGAGGAUAUUUGAAAGAAAAGAAAAGAAAGAAGAAGAAGAAGGCACAAGAA [Merneith] (Eterna round: R96, puzzle: Exclusion 1)	–	–	0.0238 µM	–	–	–
AGGACGAUAGGAUAUACAUGAGGAUCACCCAUGUGCAUAAGAAUAUGCCAAUCCACGCGUAGAAGGAUCAUAAU [Eternabot (Original) Solution 11] (Eterna round: R97, puzzle: Exclusion 3)	0.0654 µM	0.0281 µM	–	–	–	–
AGGAGACAUGAGGAUCACCCAUGUAAGGAUAUGUAGGAGCAGCCGGCUGGUUCGCUCCGCAGAAGGUGCGCGGU [Eternabot (L2) Solution 11] (Eterna round: R97, puzzle: Exclusion 1)	0.0493 µM	0.0413 µM	–	–	–	–
AGGCCACAUGAGGAUCACCCAUGUUAGGAUAUCGAGAGUACAACGAGCCGUCACUUCCCGAGAAGGGACAAGGG [Eternabot (Original) Solution 22] (Eterna round: R97, puzzle: Exclusion 1)	0.0653 µM	0.0545 µM	–	–	–	–
AGGGAUAAAGGAUAUACAUGAGGAUCACCCAUGUUGAGGAAAGUUAGAUGAGGAGGAAGUAGAAGGUUAGGCGA [JR_Exclu3_Sub086] (puzzle: Exclusion 3)	–	–	–	0.0311 µM	0.0317 µM	0.0404 µM
AGGUAGUCAGGAUAUUAGGAGUAGCGGGAUAACGCUACGAGUGAGAAGGGACAUGAGGAUCACCCAUGUUUUGU [JR_Ex4_Sub068] (Eterna round: R97, puzzle: Exclusion 4)	0.0243 µM	0.0231 µM	–	–	–	–
AGGUCACAUGAGGAUCACCCAUGUCAGGAUAUCGUCACUGGAGCUGCGGCUCCAGUGACGAGAAGGGACAAUUA [E1/6-A3] (Eterna round: R97, puzzle: Exclusion 1)	0.372 µM	0.0772 µM	–	–	–	–
